Source: FireProtDB (doi:10.1016/j.bpc.2008.09.020)

B1: Cytochrome c-551, P00099 (parent)
chain: MKPYALLSLLATGTLLAQGAWAEDPEVLFKNKGCVACHAIDTKMVGPAYKDVAAKFAGQAGAEAELAQRIKNGSQGVWGPIPMPPNAVSDDEAQTLAKWVLSQK

Variants of: B1
Conditions: Pseudomonas aeruginosa (strain ATCC 15692 / DSM 22644 / CIP 104116 / JCM 14847 / LMG 12228 / 1C / PRS 101 / PAO1), 25 °C, GdnHCl, CD, Sodium acetate 20 mM, structure 451C, whole UniProt chain shown

Row | Variant | ddG of mutation (higher = less stable) (pH 3.6) [kcal/mol] | denaturant m value (pH 3.6) [kcal/mol/M] | denaturant midpoint (higher = more stable) (pH 3.6) [M] | unfolding free energy (pH 3.6) [kcal/mol] | ddG of mutation (higher = less stable) (pH 5) [kcal/mol] | denaturant m value (pH 5) [kcal/mol/M] | denaturant midpoint (higher = more stable) (pH 5) [M] | unfolding free energy (pH 5) [kcal/mol]
1 | MKPYALLSLLATGTLLAQGAWAEDPEVLFKNKGCVACHAIDTKMVGPAYKDVAAKFAGQAGAEAYLAQRIKNGSQGVWGPIPMPPNAVSDDEAQTLAKWVLSQK | -0.09 | 2.88 | 1.46 | 4.23 | -1.13 | 3.1 | 2.12 | 6.57
2 | MKPYALLSLLATGTLLAQGAWAEDPEVLAKNKGCMACHAIDTKMVGPAYKDVAAKYAGQAGAEAYLAQRIKNGSQGVWGPIPMPPNAVSDDEAQTLAKWVLSQK | -2.39 | 2.52 | 2.59 | 6.52 | -3.76 | 2.43 | 3.78 | 9.21
3 | MKPYALLSLLATGTLLAQGAWAEDPEVLFKNKGCVACHAIDTKMVGPAYKDVAAKYAGQAGAEAYLAQRIKNGSQGVWGPIPMPPNAVSDDEAQTLAKWILSQK | -1.63 | 2.57 | 2.25 | 5.77 | -2.95 | 2.44 | 3.44 | 8.39
4 | MKPYALLSLLATGTLLAQGAWAEDPEVLFKNKGCVACHAIDTKMVGPAYKDVAAKYAGQAGAEAELAQRIKNGSQGVWGPIPMPPNAVSDDEAQTLAKWVLSQK | -0.28 | 2.76 | 1.6 | 4.41 | -1.33 | 2.67 | 2.54 | 6.78
5 | MKPYALLSLLATGTLLAQGAWAEDPEVLAKNKGCMACHAIDTKMVGPAYKDVAAKFAGQAGAEAELAQRIKNGSQGVWGPIPMPPNAVSDDEAQTLAKWILSQK | -1.9 | 2.45 | 2.46 | 6.04 | -2.29 | 2.47 | 3.13 | 7.74
6 | MKPYALLSLLATGTLLAQGAWAEDPEVLAKNKGCMACHAIDTKMVGPAYKDVAAKFAGQAGAEAELAQRIKNGSQGVWGPIPMPPNAVSDDEAQTLAKWVLSQK | -1.45 | 2.56 | 2.18 | 5.58 | -1.92 | 2.57 | 2.87 | 7.37
7 | MKPYALLSLLATGTLLAQGAWAEDPEVLFKNKGCVACHAIDTKMVGPAYKDVAAKYAGQAGAEAYLAQRIKNGSQGVWGPIPMPPNAVSDDEAQTLAKWVLSQK | -0.72 | 2.7 | 1.8 | 4.85 | -2.27 | 2.68 | 2.88 | 7.71
8 | MKPYALLSLLATGTLLAQGAWAEDPEVLFKNKGCVACHAIDTKMVGPAYKDVAAKFAGQAGAEAELAQRIKNGSQGVWGPIPMPPNAVSDDEAQTLAKWILSQK | -1.05 | 2.74 | 1.89 | 5.18 | -1.49 | 2.74 | 2.53 | 6.93
9 | MKPYALLSLLATGTLLAQGAWAEDPEVLAKNKGCMACHAIDTKMVGPAYKDVAAKYAGQAGAEAYLAQRIKNGSQGVWGPIPMPPNAVSDDEAQTLAKWILSQK | -3.34 | 2.54 | 2.95 | 7.48 | -4.78 | 2.44 | 4.2 | 10.2
